Tests used:
[1] = substrate: CC(C)=CCC/C(C)=C/CC/C(C)=C/CO[P@@](=O)(O)OP(=O)(O)O; experiment: purified protein, by the assay type; details: other: double reciprocal plotting; remaining reactants at saturation
[2] = substrate: C=C(C)CCO[P@@](=O)(O)OP(=O)(O)O; experiment: purified protein, by the assay type; details: other: double reciprocal plotting; remaining reactants at saturation

B1: T. canadensis GGPP synthase (Taxus canadensis) (protein)
chain: FDFNEYMKSKAVAVDAALDKAIPLEYPEKIHESMRYSLLAGGKRVRPALCIAACELVGGSQDLAMPTACAMEMIHTMSLIHDDLPCMDNDDFRRGKPTNHKVFGEDTAVLAGDALLSFAFEHIAVATSKTVPSDRTLRVISELGKTIGSQGLVGGQVVDITSEGDANVDLKTLEWIHIHKTAVLLECSVVSGGILGGATEDEIARIRRYARCVGLLFQVVDDILDVTKSSEELGKTAGKDLLTDKATYPKLMGLEKAKEFAAELATRAKEELSSFDQIKAAPLLGLADYIAFRQN
Km [1]: 6 µM | Km [2]: 7 µM

— patent publication US6043072A, “Nucleic acids encoding Taxus geranylgeranyl diphosphate synthase, and methods of use” (Washington State University Research Foundation, priority 1998, dated 2000)
